The assay addresses glutathione-S-transferase (GST)-CDK1 fusion protein (not stated (amplified from RNA of Vero cells; African green monkey from memory)).

Substance “TrxA-His-p17 fusion protein (natural protein)” yielded an in vitro kinase assay: vimentin-Ser 56 phosphorylation of GST-vimentin (2 μM) by GST-CDK1 (10 nM) and GST-cyclin B1 (10 nM) with increasing TrxA-His-p17; Ki of p17 of 0.1 µM.

The values are drawn from article PMC5014334.
